Laboratory results as given in patent publication US20200181261A1 (Bayer, published 2020).

T1: Macaca fascicularis CEACAM6, extracellular (mature form), obtained by Factor Xa cleavage of TPP-2443 (Macaca fascicularis)
T1 construct: used biotinylated in some assays; also called APP-319; Cynomolgus CEACAM6
T1 chain: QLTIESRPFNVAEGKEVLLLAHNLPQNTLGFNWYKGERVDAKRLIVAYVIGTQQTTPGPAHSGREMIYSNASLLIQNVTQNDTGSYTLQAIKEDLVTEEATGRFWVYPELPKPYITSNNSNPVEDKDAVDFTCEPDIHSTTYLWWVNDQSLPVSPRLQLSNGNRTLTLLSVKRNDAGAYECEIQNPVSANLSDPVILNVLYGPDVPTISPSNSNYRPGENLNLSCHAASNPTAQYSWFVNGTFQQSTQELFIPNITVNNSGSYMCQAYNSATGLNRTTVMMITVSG

T2: human CEACAM5, extracellular (mature form), R&D Systems 4128-CM (human, UniProt P06731 35-685)
T2 construct: used biotinylated in some assays; also called TPP-1438; hC5
T2 sequence: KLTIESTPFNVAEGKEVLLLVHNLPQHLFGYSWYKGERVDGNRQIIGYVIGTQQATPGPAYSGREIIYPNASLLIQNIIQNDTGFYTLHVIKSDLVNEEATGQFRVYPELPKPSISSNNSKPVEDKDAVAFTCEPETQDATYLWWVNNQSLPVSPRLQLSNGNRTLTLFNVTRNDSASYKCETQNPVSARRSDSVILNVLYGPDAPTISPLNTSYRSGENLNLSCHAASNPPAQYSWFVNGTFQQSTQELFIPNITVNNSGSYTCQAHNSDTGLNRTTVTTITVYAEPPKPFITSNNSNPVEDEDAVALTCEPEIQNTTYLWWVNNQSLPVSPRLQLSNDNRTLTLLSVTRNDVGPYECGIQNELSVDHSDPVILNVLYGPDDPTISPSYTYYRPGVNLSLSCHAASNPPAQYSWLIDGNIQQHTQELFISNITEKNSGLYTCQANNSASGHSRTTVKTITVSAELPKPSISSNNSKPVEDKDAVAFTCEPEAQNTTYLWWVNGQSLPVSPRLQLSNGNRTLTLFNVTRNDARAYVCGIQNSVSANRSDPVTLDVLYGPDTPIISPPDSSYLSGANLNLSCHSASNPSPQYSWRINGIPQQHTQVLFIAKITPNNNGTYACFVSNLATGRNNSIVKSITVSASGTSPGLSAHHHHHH

T3: human CEACAM6, extracellular (mature form), R&D Systems 3934-CM (human, UniProt P40199 35-320)
T3 construct: used biotinylated in some assays; also called TPP-1436; Recombinant human CEACAM6
T3 sequence: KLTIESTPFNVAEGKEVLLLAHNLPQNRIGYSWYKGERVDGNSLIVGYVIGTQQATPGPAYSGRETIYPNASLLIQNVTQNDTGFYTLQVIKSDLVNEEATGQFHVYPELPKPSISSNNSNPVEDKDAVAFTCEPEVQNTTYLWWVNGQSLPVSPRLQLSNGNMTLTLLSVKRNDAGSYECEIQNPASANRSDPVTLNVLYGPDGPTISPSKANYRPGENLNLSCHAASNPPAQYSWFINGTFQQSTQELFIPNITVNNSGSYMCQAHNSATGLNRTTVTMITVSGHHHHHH

T4: human CEACAM3, extracellular (mature form), Sino Biological Inc. 11933-H08H (human, UniProt P40198 35-155)
T4 construct: used biotinylated in some assays; also called TPP-2755
T4 sequence: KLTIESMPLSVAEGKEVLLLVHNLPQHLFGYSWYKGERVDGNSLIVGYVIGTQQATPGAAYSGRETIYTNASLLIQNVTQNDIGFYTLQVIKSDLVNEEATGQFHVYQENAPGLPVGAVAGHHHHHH


Assays:
Assay in all cases: SPR, antibody captured, antigen as analyte
[1] = molecular target: T1, Macaca fascicularis CEACAM6, …
Experimental: (§1) Surface plasmon resonance (SPR) experiments for quantitative binding analyses were performed either using a Biacore T100, Biacore T200 or a Biacore 4000 instrument (GE Healthcare Biacore, Inc.) equipped with Series S Sensor Chips CM5 (GE Healthcare Biacore, Inc.). Binding assays were carried out at 25° C. with assay buffer HBS-EP+(10 mM HEPES pH 7.4, 150 mM NaCl, 3 mM EDTA, 0.05% Surfactant P20). Antibodies were captured with an anti-hIgG capture antibody covalently immobilized to the chip surface via amine coupling chemistry. Reagents for amine coupling (1-ethyl-3-(3-dimethylaminopropyl) carbodiimide hydrochloride (EDC), N-hydroxysuccinimide (NHS), ethanolamine-HCl pH 8.5) were used from the Amine Coupling Kit (GE Healthcare, product code BR-1000-50). Anti-hIgG, anti-mIgG capture antibodies and immobilization buffer (10 mM sodium acetate pH 5.0) were used from the Human Antibody Capture Kit (GE Healthcare, BR-1008-39) and the Mouse Antibody Capture Kit (GE Healthcare, BR-1008-38), respectively. The sensor chip surface was activated with a freshly prepared solution of 0.2 M EDC and 0.05 M NHS passed over the chip surface for 420 s at a flow rate of 10 μl/min, followed by an injection of anti-hIgG or anti-mIgG capture antibody (dissolved to 25 μg/ml in immobilization buffer) for 180 s at a flow rate of […]. Excess of activated groups were blocked with a 1 molar solution of ethanolamine injected at a flow rate of 10 μl/min for 420 s.
(§2) CEACAM antigens were used as analyte to determine KD values. Antibodies were captured for 20 s at a flow rate of 10 μl/min prior to each analyte injection.
(§3) Obtained sensorgrams were double-referenced, i.e. in-line reference cell correction followed by buffer sample subtraction.

[2] = molecular target: T2, human CEACAM5, extracellular (mature …)
Experimental: as §1, §2, §3

[3] = molecular target: T3, human CEACAM6, extracellular (mature …)
Experimental: as §1, §2, §3

[4] = molecular target: T4, human CEACAM3, extracellular (mature …)
Experimental: as §1, §2, §3

Binder	Kd [1] [nM]	binding result [2]	Kd [3] [nM]	binding result [4]
TPP-3705 (antibody, human IgG2, kappa, V domains shown, also called 090E-M007-A09-Mat1-hIgG2-hIgG2Kappa) VH: EVQLVESGGGLVQPGGSLRLSCAASGFTFSLYQMHWVRQAPGKGLEWVSWISFSGGNTGYADSVKGRFTISRDNSKNTLYLQMNSLRAEDTAVYYCARATGYSSPWYLDPWGQGTLVTVSS VL: DIQMTQSPSSLSASVGDRVTITCQASHEIDNYLNWYQQKPGKAPKLLIYDAYWLKTGVPSRFSGSGSGTDFTLTISSLQPEDIATYYCQGYDDLSVTFGGGTKVDIKR	32	no binding (tested: 200 nM)	28	–
TPP-3707 (antibody, human IgG2, kappa, V domains shown, also called 090E-M007-A09-Mat2-hIgG2-hIgG2Kappa) VH: EVQLVESGGGLVQPGGSLRLSCAASGFTFSLYQMHWVRQAPGKGLEWVSWISFSGGNTGYADSVKGRFTISRDNSKNTLYLQMNSLRAEDTAVYYCARATGYSSPWYLDPWGQGTLVTVSS VL: DIQMTQSPSSLSASVGDRVTITCQASHEIDNYLNWYQQKPGKAPKLLIYDAYWSKTGVPSRFSGSGSGTDFTLTISSLQPEDIATYYCQGYDDLSVTFGGGTKVDIKR	32	no binding (tested: 200 nM)	28	–
TPP-2971 (antibody, mouse IgG1, V domains shown, murine hybridoma antibody, mouse IgG1; also called 792.15H12C9) VH: QVTLKESGPGILQPSQTLSLTCSFSGFSLSTYGIGVGWIRQPSGKDLEWLAHIWWNDNKYYNTALKSRLTISKDTSNNQVFLKIASVDTADTATYYCARISLPYFDYWGQGTTLTVSS VL: DIVMTQSQKFMSTSVGDRVSITCKASQNVGTAVAWYQQKPGQSPKLLIYSASNRYTGVPDRFTGSGSGTDFTLTISNMQSEDLADYFCQQYSSYPLTFGAGTKLELK	25	no binding (tested: 200 nM)	61	no binding (tested: 200 nM)
TPP-3821 (antibody, human IgG2, kappa, V domains shown, humanized from TPP-3187, human IgG2; also called 3187HU2-hIgG2Kappa) VH: QVTLRESGPALVKPTQTLTLTCTFSGFSLSTYGIGVGWIRQPPGKALEWLAHIWWNDNKYYSTSLKTRLTISKDTSKNQVVLTMTNMDPVDTATYYCARISLPYFDYWGQGTLVTVSS VL: DIQLTQSPSFLSASVGDRVTITCKASQNVGTAVAWYQQKPGKAPKLLIYSASNRYTGVPSRFSGSGSGTEFTLTISSLQPEDFATYYCQQYNNYPLTFGGGTKVEIKR	49	no binding (tested: 200 nM)	24	no binding (tested: 200 nM)
TPP-3820 (antibody, human IgG2, kappa, V domains shown, humanized from TPP-3187, human IgG2; also called 3187HU1-hIgG2Kappa) VH: QVTLRESGPALVKPTQTLTLTCTFSGFSLTTYGIGVGWIRQPPGKGLEWLAHIWWNDNKYYSTSLKTRLTISKDTSKNQVVLTMTNMDPVDTATYYCARISLPYFDYWGQGTLVTVSS VL: DIQLTQSPSFLSASVGDRVTITCKASQNVGTAVAWYQQKPGKAPKLLIYSASNRYTGVPSRFSGSGSGTEFTLTISSLQPEDFATYYCQQYNNYPLTFGGGTKVEIKR	54	no binding (tested: 200 nM)	27	no binding (tested: 200 nM)

The remaining binders from weak to strong by Kd [3], led by results:

Kd [1] [nM]	binding result [2]	Kd [3] [nM]	binding result [4]	Binder
–	no binding (tested: 200 nM)	68	no binding (tested: 200 nM)	TPP-3187 (antibody, mouse IgG1, V domains shown, murine hybridoma antibody, mouse IgG1; also called 792.15C4F4) VH: QVTLKESGPGILQPSQTLSLTCSFSGFSLTTYGIGVGWIRQPSGKGLEWLAHIWWNDNKYYNTALKSRLTISKDTSNNQVFLKIASVDTADTATYYCARISLPYFDYWGQGTTLTVSS VL: DIVMTQSQKFMSTSVGDRVSITCKASQNVGTAVAWYQQKPGQSPKLLIYSASNRYTGVPDRFTGSGSGTDFTLTISNMQSEDLADYFCQQYNNYPLTFGAGTKLELK
27	no binding (tested: 200 nM)	13	no binding (tested: 200 nM)	TPP-3714 (antibody, human IgG2, kappa, humanized from TPP-2971, human IgG2; also called TPP-2971HU2-hIgG2Kappa) heavy: QVTLRESGPALVKPTQTLTLTCTFSGFSLSTYGIGVGWIRQPPGKALEWLAHIWWNDNKYYSTSLKTRLTISKDTSKNQVVLTMTNMDPVDTATYYCARISLPYFDYWGQGTLVTVSSASTKGPSVFPLAPCSRSTSESTAALGCLVKDYFPEPVTVSWNSGALTSGVHTFPAVLQSSGLYSLSSVVTVPSSNFGTQTYTCNVDHKPSNTKVDKTVERKCCVECPPCPAPPVAGPSVFLFPPKPKDTLMISRTPEVTCVVVDVSHEDPEVQFNWYVDGVEVHNAKTKPREEQFNSTFRVVSVLTVVHQDWLNGKEYKCKVSNKGLPAPIEKTISKTKGQPREPQVYTLPPSREEMTKNQVSLTCLVKGFYPSDIAVEWESNGQPENNYKTTPPMLDSDGSFFLYSKLTVDKSRWQQGNVFSCSVMHEALHNHYTQKSLSLSPG light: DIQLTQSPSFLSASVGDRVTITCKASQNVGTAVAWYQQKPGKAPKLLIYSASNRYTGVPSRFSGSGSGTEFTLTISSLQPEDFATYYCQQYSSYPLTFGGGTKVEIKRTVAAPSVFIFPPSDEQLKSGTASVVCLLNNFYPREAKVQWKVDNALQSGNSQESVTEQDSKDSTYSLSSTLTLSKADYEKHKVYACEVTHQGLSSPVTKSFNRGEC
31	no binding (tested: 200 nM)	13	no binding (tested: 200 nM)	TPP-3310 (antibody, human IgG2, kappa, humanized from TPP-2971, human IgG2; also called TPP-2971HU1-hIgG2Kappa) heavy: QVTLRESGPALVKPTQTLTLTCTFSGFSLSTYGIGVGWIRQPPGKALEWLAHIWWNDNKYYSTSLKTRLTISKDTSKNQVVLTMTNMDPVDTATYYCARISLPYFDYWGQGTTLTVSSASTKGPSVFPLAPCSRSTSESTAALGCLVKDYFPEPVTVSWNSGALTSGVHTFPAVLQSSGLYSLSSVVTVPSSNFGTQTYTCNVDHKPSNTKVDKTVERKCCVECPPCPAPPVAGPSVFLFPPKPKDTLMISRTPEVTCVVVDVSHEDPEVQFNWYVDGVEVHNAKTKPREEQFNSTFRVVSVLTVVHQDWLNGKEYKCKVSNKGLPAPIEKTISKTKGQPREPQVYTLPPSREEMTKNQVSLTCLVKGFYPSDIAVEWESNGQPENNYKTTPPMLDSDGSFFLYSKLTVDKSRWQQGNVFSCSVMHEALHNHYTQKSLSLSPG light: DIQLTQSPSFLSASVGDRVTITCKASQNVGTAVAWYQQKPGKAPKLLIYSASNRYTGVPSRFSGSGSGTEFTLTISSLQPEDFATYYCQQYSSYPLTFGGGTKVEIKRTVAAPSVFIFPPSDEQLKSGTASVVCLLNNFYPREAKVQWKVDNALQSGNSQESVTEQDSKDSTYSLSSTLTLSKADYEKHKVYACEVTHQGLSSPVTKSFNRGEC
